# Results taken from article PMC7913765, “Dynamics of the HD regulatory subdomain of PARP-1; substrate access and allostery in PARP activation and inhibition”.
# B1: biotinylated hairpin DNA (dumbbell single-strand break model) (structured_DNA)
# DNA: GACAACCCGGCGCTTTTTTTGCGCCGGGTTGTCTGGCCCAGTTCGTTTTTTTCGAACTGGGCCA
# modifications: biotin-dT at position 17 (written as T; between S1 and S2)
# Columns and labels:
# Conditions in all cases: protein: recombinant; tags: N-terminal 6His-6Lys tag, TEV site; label: biotin (internal dT, streptavidin chip); dumbbell of two hairpins with T7 loops, nick between the 5' and 3' ends; stems 13 and 12 bp
# PARP-1 full-length [1] = biological target: T1, PARP-1 full-length (human, UniProt P09874 2-1014); assay: SPR; EB-47 (100 mM [sic]); SPR (Biacore 8K): 20 mM HEPES, 150 mM NaCl, 1 mM TCEP, 0.05% Tween-20, 1% (v/v) (component not given), pH not stated, 25 C; PARP-1 0.078-20 nM; n = 6
# PARP-1 full-length [2] = biological target: T1, PARP-1 full-length; assay: SPR; no inhibitor; SPR (Biacore 8K): 20 mM HEPES, 150 mM NaCl, 1 mM TCEP, 0.05% Tween-20, 1% (v/v) (component not given), pH not stated, 25 C; PARP-1 0.078-20 nM; n = 6
# PARP-1 full-length [3] = biological target: T1, PARP-1 full-length; assay: SPR; veliparib (10 mM [sic]); SPR (Biacore 8K): 20 mM HEPES, 150 mM NaCl, 1 mM TCEP, 0.05% Tween-20, 1% (v/v) (component not given), pH not stated, 25 C; PARP-1 0.078-20 nM; n = 6
# PARP-1 full-length [4] = biological target: T1, PARP-1 full-length; assay: SPR; olaparib (10 mM [sic]); SPR (Biacore 8K): 20 mM HEPES, 150 mM NaCl, 1 mM TCEP, 0.05% Tween-20, 1% (v/v) (component not given), pH not stated, 25 C; PARP-1 0.078-20 nM; n = 6
# T1 sequence (P09874 2-1014): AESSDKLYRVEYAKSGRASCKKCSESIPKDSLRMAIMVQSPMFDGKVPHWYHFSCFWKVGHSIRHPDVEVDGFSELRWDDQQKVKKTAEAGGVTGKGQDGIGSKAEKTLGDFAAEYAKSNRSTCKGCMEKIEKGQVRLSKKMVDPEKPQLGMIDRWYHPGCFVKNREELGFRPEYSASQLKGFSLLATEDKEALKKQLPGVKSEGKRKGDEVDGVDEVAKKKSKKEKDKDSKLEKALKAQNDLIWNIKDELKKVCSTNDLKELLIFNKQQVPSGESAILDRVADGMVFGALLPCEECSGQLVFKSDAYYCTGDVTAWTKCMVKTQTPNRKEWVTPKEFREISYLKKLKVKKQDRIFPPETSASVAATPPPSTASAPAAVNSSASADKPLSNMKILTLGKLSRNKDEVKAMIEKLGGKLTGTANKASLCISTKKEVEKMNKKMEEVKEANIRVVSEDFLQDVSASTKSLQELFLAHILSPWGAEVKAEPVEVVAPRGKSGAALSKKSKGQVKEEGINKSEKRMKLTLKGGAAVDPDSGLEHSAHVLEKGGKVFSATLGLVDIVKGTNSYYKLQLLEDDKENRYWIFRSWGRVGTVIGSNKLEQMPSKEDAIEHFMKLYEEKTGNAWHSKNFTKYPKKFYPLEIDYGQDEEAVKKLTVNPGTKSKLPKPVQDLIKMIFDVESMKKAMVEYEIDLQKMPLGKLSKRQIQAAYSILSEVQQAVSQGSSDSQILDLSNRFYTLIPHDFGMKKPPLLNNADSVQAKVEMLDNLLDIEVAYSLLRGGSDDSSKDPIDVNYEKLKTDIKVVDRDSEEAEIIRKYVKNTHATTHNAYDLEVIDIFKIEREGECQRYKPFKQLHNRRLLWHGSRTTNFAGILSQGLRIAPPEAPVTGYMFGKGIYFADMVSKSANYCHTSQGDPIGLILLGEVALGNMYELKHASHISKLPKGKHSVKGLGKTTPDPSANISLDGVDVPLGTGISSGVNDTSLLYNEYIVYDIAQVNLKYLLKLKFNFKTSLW
binder,measurement,setting,value
B1,Kd,PARP-1 full-length [1],0.13 nM
same,Kd,PARP-1 full-length [2],2.1 nM
same,Kd,PARP-1 full-length [3],4.2 nM
same,Kd,PARP-1 full-length [4],2.1 nM
